± gives the uncertainty stated by the source.
Assay: self-splicing fitness, log relative to wild type (ln ratio); higher = more splicing; Tetrahymena group I intron in knt gene, E. coli kanamycin selection, DiMSum; sequences stand for … in CUCUCU…GGAGGGAAAAGUUAUCAGGCAUGCACCUGGUAGCUAGUCUUUAAACCAAUAGAUUGCAUCGGUUUAAAAGGCAAGACCGUCAAAUUGCGGGAAAGGGGUCAACAGCCGUUCAGUACCAAGUCUCAGGGGAAACUUUGAGAUGGCCUUGCAAAGGGUAUGGUAAUAAGCUGACGGACAUGGUCCUAACCACGCAGCCAAGUCCUAAGUCAACAGAUCUUCUGUUGAUAUGGAUGCAGUUCACAGACUAAAUGUCGGUCGGGGAAGAUGUAUUCUUCUCAUAAGAUAUAGUCGGACCUCUCCUUAAUGGGAGCUAGCGGAUGAAGUGAUGCAACACUGGAGCCGCUGGGAACUAAUUUGUAUGCGAAAGUAUAUUGAUUAGUUUUGGAGUACUCGUGGUCG
Procedure, shortened: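 Colonies from six replicate transformations of E. coli BL21(DE3) were pooled and amplicon-sequenced on an Illumina HiSeq 2500. The library placed an intron with all eight P1ex-region nucleotides randomised inside the knt kanamycin-resistance gene on pET-22b(+), and cells grew overnight at 37°C or 30°C on LB agar with or without 25 μg/mL kanamycin (plus 100 μg/mL carbenicillin, 50 μM IPTG, 0.2% rhamnose). Fitness is the DiMSum error-weighted combination of wild-type-normalised replicate fold changes, kanamycin versus none.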

In the case of AAACAGCAAUAUUACGAGAG, the “self-splicing fitness (ln)” value (30 °C) is reported as -2.76 ± 0.18 and the “self-splicing fitness (ln)” value (37 °C) is reported as -2.91 ± 0.16.
In the case of CCUAAGCAAUAUUACGGGAA, the “self-splicing fitness (ln)” value (30 °C) is reported as -3.52 ± 0.22 and the “self-splicing fitness (ln)” value (37 °C) is reported as -1.83 ± 0.2.
With GUCGAGCAAUAUUACGGCUG the “self-splicing fitness (ln)” value (30 °C) was -2.54 ± 0.25 and the “self-splicing fitness (ln)” value (37 °C) was -1.7 ± 0.39.
For CUAGAGCAAUAUUACGCAGC, the “self-splicing fitness (ln)” value (30 °C) was -3.55 ± 0.38 and the “self-splicing fitness (ln)” value (37 °C) was -3.32 ± 0.46.
For CCUUAGCAAUAUUACGUAUG, the “self-splicing fitness (ln)” value (30 °C) was -2.98 ± 0.19 and the “self-splicing fitness (ln)” value (37 °C) was -0.234 ± 0.12.
With CAGUAGCAAUAUUACGAAUC the “self-splicing fitness (ln)” value (30 °C) was -3.49 ± 0.33.
In the case of CACUAGCAAUAUUACGGAAU, the “self-splicing fitness (ln)” value (30 °C) is reported as -4 ± 0.27 and the “self-splicing fitness (ln)” value (37 °C) is reported as -2.3 ± 0.32.
For ACUUAGCAAUAUUACGUACC, the “self-splicing fitness (ln)” value (30 °C) was -2.17 ± 0.23 and the “self-splicing fitness (ln)” value (37 °C) was -1.06 ± 0.23.
With GGAUAGCAAUAUUACGUUUC the “self-splicing fitness (ln)” value (37 °C) was -1.84 ± 0.41.
With GUACAGCAAUAUUACGUACG the “self-splicing fitness (ln)” value (30 °C) was -4.18 ± 0.31 and the “self-splicing fitness (ln)” value (37 °C) was -2.2 ± 0.19.
In the case of CGAUAGCAAUAUUACGCUGA, the “self-splicing fitness (ln)” value (30 °C) is reported as -2.46 ± 0.17 and the “self-splicing fitness (ln)” value (37 °C) is reported as -1.59 ± 0.16.
In the case of CCCUAGCAAUAUUACGUCCA, the “self-splicing fitness (ln)” value (30 °C) is reported as -2.95 ± 0.23 and the “self-splicing fitness (ln)” value (37 °C) is reported as -2.83 ± 0.31.
For UUAUAGCAAUAUUACGACAU, the “self-splicing fitness (ln)” value (30 °C) was -2.471 ± 0.021 and the “self-splicing fitness (ln)” value (37 °C) was -1.55 ± 0.036.
With AGGAAGCAAUAUUACGGGUG the “self-splicing fitness (ln)” value (30 °C) was -2.14 ± 0.091 and the “self-splicing fitness (ln)” value (37 °C) was -1.98 ± 0.11.
For AGCAAGCAAUAUUACGAUUU, the “self-splicing fitness (ln)” value (30 °C) was -0.00633 ± 0.054 and the “self-splicing fitness (ln)” value (37 °C) was 0.677 ± 0.08.
With CAGCAGCAAUAUUACGUGCG the “self-splicing fitness (ln)” value (30 °C) was -1 ± 0.05 and the “self-splicing fitness (ln)” value (37 °C) was -0.378 ± 0.066.
With UCUGAGCAAUAUUACGCCAG the “self-splicing fitness (ln)” value (37 °C) was -0.871 ± 0.46.
With ACUUAGCAAUAUUACGAACA the “self-splicing fitness (ln)” value (30 °C) was -1.35 ± 0.2 and the “self-splicing fitness (ln)” value (37 °C) was -0.724 ± 0.19.
With UUACAGCAAUAUUACGCGGG the “self-splicing fitness (ln)” value (30 °C) was -2.33 ± 0.14 and the “self-splicing fitness (ln)” value (37 °C) was -0.688 ± 0.12.
With CUUGAGCAAUAUUACGGAGG the “self-splicing fitness (ln)” value (30 °C) was -2.13 ± 0.19 and the “self-splicing fitness (ln)” value (37 °C) was -1.67 ± 0.16.
In the case of UGGCAGCAAUAUUACGGAUA, the “self-splicing fitness (ln)” value (30 °C) is reported as -0.806 ± 0.098 and the “self-splicing fitness (ln)” value (37 °C) is reported as -0.358 ± 0.11.
For CCUAAGCAAUAUUACGUUAG, the “self-splicing fitness (ln)” value (30 °C) was -1.95 ± 0.11 and the “self-splicing fitness (ln)” value (37 °C) was -2.03 ± 0.11.
With GGAGAGCAAUAUUACGGUGU the “self-splicing fitness (ln)” value (30 °C) was -3.55 ± 0.28 and the “self-splicing fitness (ln)” value (37 °C) was -2.38 ± 0.18.
In the case of CGCGAGCAAUAUUACGCACA, the “self-splicing fitness (ln)” value (30 °C) is reported as -2.3 ± 0.19 and the “self-splicing fitness (ln)” value (37 °C) is reported as -1.16 ± 0.18.
For GUGUAGCAAUAUUACGGAGG, the “self-splicing fitness (ln)” value (30 °C) was -3.89 ± 0.29 and the “self-splicing fitness (ln)” value (37 °C) was -2.67 ± 0.22.
With CGCAAGCAAUAUUACGAAGU the “self-splicing fitness (ln)” value (30 °C) was -4.42 ± 0.36 and the “self-splicing fitness (ln)” value (37 °C) was -0.741 ± 0.15.
With CGCCAGCAAUAUUACGCCCU the “self-splicing fitness (ln)” value (30 °C) was -1.93 ± 0.14 and the “self-splicing fitness (ln)” value (37 °C) was -0.637 ± 0.13.
In the case of AUGAAGCAAUAUUACGCUCU, the “self-splicing fitness (ln)” value (30 °C) is reported as -0.29 ± 0.15 and the “self-splicing fitness (ln)” value (37 °C) is reported as 0.111 ± 0.18.
In the case of GAGGAGCAAUAUUACGGUUU, the “self-splicing fitness (ln)” value (30 °C) is reported as -2.44 ± 0.13 and the “self-splicing fitness (ln)” value (37 °C) is reported as -2.28 ± 0.16.
For ACAUAGCAAUAUUACGAUCG, the “self-splicing fitness (ln)” value (30 °C) was 0.0966 ± 0.084 and the “self-splicing fitness (ln)” value (37 °C) was -0.312 ± 0.13.
With GCCCAGCAAUAUUACGAAGA the “self-splicing fitness (ln)” value (30 °C) was -1.46 ± 0.12 and the “self-splicing fitness (ln)” value (37 °C) was -0.344 ± 0.14.
In the case of GAACAGCAAUAUUACGGCAG, the “self-splicing fitness (ln)” value (30 °C) is reported as -2.31 ± 0.12 and the “self-splicing fitness (ln)” value (37 °C) is reported as -3.02 ± 0.24.
In the case of GCUCAGCAAUAUUACGCCAC, the “self-splicing fitness (ln)” value (37 °C) is reported as -1.97 ± 0.47.
In the case of GCCAAGCAAUAUUACGUAAG, the “self-splicing fitness (ln)” value (30 °C) is reported as -1.37 ± 0.11 and the “self-splicing fitness (ln)” value (37 °C) is reported as -0.513 ± 0.13.
In the case of UAACAGCAAUAUUACGCGCC, the “self-splicing fitness (ln)” value (30 °C) is reported as -1.47 ± 0.1 and the “self-splicing fitness (ln)” value (37 °C) is reported as -0.587 ± 0.13.
In the case of UGACAGCAAUAUUACGCGAC, the “self-splicing fitness (ln)” value (30 °C) is reported as -1.82 ± 0.14 and the “self-splicing fitness (ln)” value (37 °C) is reported as -1.86 ± 0.19.
With CGUGAGCAAUAUUACGAUGC the “self-splicing fitness (ln)” value (30 °C) was -0.111 ± 0.43 and the “self-splicing fitness (ln)” value (37 °C) was -2 ± 0.48.
For CGUAAGCAAUAUUACGGGUU, the “self-splicing fitness (ln)” value (30 °C) was -3.63 ± 0.17 and the “self-splicing fitness (ln)” value (37 °C) was -2.98 ± 0.29.
With AGUCAGCAAUAUUACGCUCG the “self-splicing fitness (ln)” value (30 °C) was -0.828 ± 0.075 and the “self-splicing fitness (ln)” value (37 °C) was -0.495 ± 0.098.
In the case of AGCCAGCAAUAUUACGCUGA, the “self-splicing fitness (ln)” value (30 °C) is reported as -2.75 ± 0.16 and the “self-splicing fitness (ln)” value (37 °C) is reported as -1.87 ± 0.15.
For CUCAAGCAAUAUUACGUCCA, the “self-splicing fitness (ln)” value (30 °C) was -2.66 ± 0.32 and the “self-splicing fitness (ln)” value (37 °C) was -1.51 ± 0.27.
With GACAAGCAAUAUUACGUAGA the “self-splicing fitness (ln)” value (30 °C) was -2.31 ± 0.092 and the “self-splicing fitness (ln)” value (37 °C) was -0.707 ± 0.097.
In the case of AGGCAGCAAUAUUACGAGCA, the “self-splicing fitness (ln)” value (30 °C) is reported as -1.96 ± 0.12 and the “self-splicing fitness (ln)” value (37 °C) is reported as -0.225 ± 0.12.

— the supplement of paper PMC7877785
